{
  "source": "paper PMC11275766",
  "about": "(bioRxiv, 2024)",
  "binders": {"B1": {"name": "M2 mAb (human IgG1) (antibody, V domains shown)", "VH": "QLQESGPGLVKPSEILSLTCSVSGGSINTNMYYWGWIRQPPGKGLEWIGSIYYSGTTYYNPSLKSRVTMSVDTSENQFSLKLTSVTAADTSVYFCARLPLGERIDYWGRGTLVTVSS", "VL": "SSDLTQPPSVSVSPGQTASITCSGNKLGDTYVFWYQQKPGQSPVAVINEDNKRPSGIPERFSGSNSGNTATLTISGTQTMDEADYYCQVWDSSQMVFGGGTKLTVL"}},
  "biological_target": "ancestral SARS-CoV-2 RBD (recombinant, ELISA antigen) (SARS-CoV-2 ancestral (Wuhan-Hu-1/WA.1), UniProt P0DTC2)",
  "experiment": "ELISA",
  "data": [
    {"binder": "B1", "values": [
      {"measurement": "binding result", "result": "no binding (tested: 30 μg/mL)"}
    ]}
  ]
}
